System: Escherichia coli TOP10
Assay: shrunken log2 fold change of peptide-encoding DNA abundance (4.5 h post-induction vs induction); higher = less antimicrobial activity (less host growth inhibition)
Settings: time post-induction: 4.5 h; library: site-saturation at positions 5, 18, 19, 20
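Also: peptides expressed intracellularly from a pBAD plasmid library in pooled LB shake-flask culture, induced with 0.3% L-arabinose, DNA abundance read by NGS, three biological replicates, DESeq2 with apeglm shrinkage.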

RRIRWRPPRLPRPRPRPTWTPRP
shrunken log2 fold change: 0.303

RRIRCRPPRLPRPRPRPIASPRP
shrunken log2 fold change: -0.0344

RRIRHRPPRLPRPRPRPCGGPRP
shrunken log2 fold change: -0.0282

RRIRGRPPRLPRPRPRPQWKPRP
shrunken log2 fold change: 0.113

RRIRIRPPRLPRPRPRPGSYPRP
shrunken log2 fold change: -0.277

RRIRTRPPRLPRPRPRPNCSPRP
shrunken log2 fold change: -0.435

RRIRTRPPRLPRPRPRPAKNPRP
shrunken log2 fold change: -0.0492

RRIRCRPPRLPRPRPRPQNWPRP
shrunken log2 fold change: -0.0693

RRIRVRPPRLPRPRPRPTSGPRP
shrunken log2 fold change: 0.0674

RRIRGRPPRLPRPRPRPQDYPRP
shrunken log2 fold change: -0.0805

RRIRWRPPRLPRPRPRPIIGPRP
shrunken log2 fold change: 0.0626

RRIRHRPPRLPRPRPRPPTFPRP
shrunken log2 fold change: -0.0769

RRIRVRPPRLPRPRPRPDFCPRP
shrunken log2 fold change: 0.183

RRIRTRPPRLPRPRPRPFHRPRP
shrunken log2 fold change: -0.469

RRIRTRPPRLPRPRPRPPWAPRP
shrunken log2 fold change: 0.613

RRIRGRPPRLPRPRPRPFQVPRP
shrunken log2 fold change: 0.0301

RRIRSRPPRLPRPRPRPEAMPRP
shrunken log2 fold change: 1.09

RRIRRRPPRLPRPRPRPADIPRP
shrunken log2 fold change: -0.0589

RRIRSRPPRLPRPRPRPVINPRP
shrunken log2 fold change: -0.106

RRIRLRPPRLPRPRPRPVCPPRP
shrunken log2 fold change: 0.149

RRIRARPPRLPRPRPRPPFDPRP
shrunken log2 fold change: 0.922

RRIRDRPPRLPRPRPRPFEKPRP
shrunken log2 fold change: 0.00649

RRIRVRPPRLPRPRPRPMDAPRP
shrunken log2 fold change: 0.0377

RRIRCRPPRLPRPRPRPSQCPRP
shrunken log2 fold change: -0.548

RRIRKRPPRLPRPRPRPVSGPRP
shrunken log2 fold change: 0.233

RRIRNRPPRLPRPRPRPRLGPRP
shrunken log2 fold change: 0.187

RRIRFRPPRLPRPRPRPWWYPRP
shrunken log2 fold change: -0.238

RRIRTRPPRLPRPRPRPWVMPRP
shrunken log2 fold change: -0.125

RRIRRRPPRLPRPRPRPINLPRP
shrunken log2 fold change: -0.00491

RRIRYRPPRLPRPRPRPLPFPRP
shrunken log2 fold change: -0.78

RRIRMRPPRLPRPRPRPDTAPRP
shrunken log2 fold change: 1.24

RRIRIRPPRLPRPRPRPTIIPRP
shrunken log2 fold change: -0.848

RRIRVRPPRLPRPRPRPAMQPRP
shrunken log2 fold change: 0.193

RRIRFRPPRLPRPRPRPHGSPRP
shrunken log2 fold change: -0.0241

RRIRCRPPRLPRPRPRPAIAPRP
shrunken log2 fold change: 0.165

RRIRLRPPRLPRPRPRPFFVPRP
shrunken log2 fold change: -0.168

RRIRKRPPRLPRPRPRPAPWPRP
shrunken log2 fold change: 0.82

RRIRLRPPRLPRPRPRPAVCPRP
shrunken log2 fold change: 0.0348

RRIRWRPPRLPRPRPRPRGLPRP
shrunken log2 fold change: 0.698

RRIRWRPPRLPRPRPRPWNRPRP
shrunken log2 fold change: 0.066

RRIRDRPPRLPRPRPRPNQPPRP
shrunken log2 fold change: 0.0323

RRIRFRPPRLPRPRPRPFLQPRP
shrunken log2 fold change: -0.408

RRIRTRPPRLPRPRPRPTHIPRP
shrunken log2 fold change: -0.308

RRIRGRPPRLPRPRPRPIYTPRP
shrunken log2 fold change: 0.173

RRIRLRPPRLPRPRPRPMRVPRP
shrunken log2 fold change: 0.115

RRIRMRPPRLPRPRPRPFQTPRP
shrunken log2 fold change: 0.00707

RRIRHRPPRLPRPRPRPLNYPRP
shrunken log2 fold change: -0.289

RRIRERPPRLPRPRPRPDPTPRP
shrunken log2 fold change: -0.0306

RRIRCRPPRLPRPRPRPMLVPRP
shrunken log2 fold change: -0.144

RRIRFRPPRLPRPRPRPQPRPRP
shrunken log2 fold change: 0.541

RRIRVRPPRLPRPRPRPYGLPRP
shrunken log2 fold change: -0.00518

RRIRERPPRLPRPRPRPELQPRP
shrunken log2 fold change: -0.0137

RRIRVRPPRLPRPRPRPHGKPRP
shrunken log2 fold change: -0.389

RRIRFRPPRLPRPRPRPWWFPRP
shrunken log2 fold change: -0.395

RRIRSRPPRLPRPRPRPGVGPRP
shrunken log2 fold change: 0.617

RRIRQRPPRLPRPRPRPSAFPRP
shrunken log2 fold change: -0.247

RRIRWRPPRLPRPRPRPSCFPRP
shrunken log2 fold change: 0.486

RRIRPRPPRLPRPRPRPNVNPRP
shrunken log2 fold change: -0.46

RRIRSRPPRLPRPRPRPAQWPRP
shrunken log2 fold change: 0.595

RRIRHRPPRLPRPRPRPSELPRP
shrunken log2 fold change: 0.0169

RRIRARPPRLPRPRPRPYMWPRP
shrunken log2 fold change: -0.927

RRIRSRPPRLPRPRPRPPSAPRP
shrunken log2 fold change: 0.646

RRIRIRPPRLPRPRPRPQEIPRP
shrunken log2 fold change: -0.581

RRIRDRPPRLPRPRPRPAADPRP
shrunken log2 fold change: 0.701

RRIRDRPPRLPRPRPRPQKWPRP
shrunken log2 fold change: 0.15

RRIRERPPRLPRPRPRPVSPPRP
shrunken log2 fold change: -0.33

RRIRWRPPRLPRPRPRPKMRPRP
shrunken log2 fold change: 1.25

RRIRDRPPRLPRPRPRPWTSPRP
shrunken log2 fold change: 0.21

RRIRYRPPRLPRPRPRPIDYPRP
shrunken log2 fold change: -0.0298

RRIRWRPPRLPRPRPRPLVMPRP
shrunken log2 fold change: 0.000565

RRIRHRPPRLPRPRPRPVKWPRP
shrunken log2 fold change: 0.421

RRIRIRPPRLPRPRPRPPLDPRP
shrunken log2 fold change: 0.0528

RRIRIRPPRLPRPRPRPAVYPRP
shrunken log2 fold change: -0.825

RRIRIRPPRLPRPRPRPCTAPRP
shrunken log2 fold change: -0.285

RRIRLRPPRLPRPRPRPYVSPRP
shrunken log2 fold change: -0.0356

RRIRNRPPRLPRPRPRPGMMPRP
shrunken log2 fold change: -0.247

RRIRTRPPRLPRPRPRPMYLPRP
shrunken log2 fold change: -0.518

RRIRLRPPRLPRPRPRPLLDPRP
shrunken log2 fold change: 0.3

RRIRNRPPRLPRPRPRPDIYPRP
shrunken log2 fold change: -0.265

RRIRYRPPRLPRPRPRPRHFPRP
shrunken log2 fold change: -0.209

RRIRMRPPRLPRPRPRPLITPRP
shrunken log2 fold change: 0.0495

RRIRIRPPRLPRPRPRPKNYPRP
shrunken log2 fold change: -0.417

RRIRQRPPRLPRPRPRPGYLPRP
shrunken log2 fold change: 0.0613

RRIRQRPPRLPRPRPRPEVEPRP
shrunken log2 fold change: 0.0391

RRIRRRPPRLPRPRPRPGSFPRP
shrunken log2 fold change: 0.122

RRIRRRPPRLPRPRPRPIVGPRP
shrunken log2 fold change: 0.0287

RRIRKRPPRLPRPRPRPFWIPRP
shrunken log2 fold change: -0.414

RRIRTRPPRLPRPRPRPKDFPRP
shrunken log2 fold change: -0.00116

RRIRWRPPRLPRPRPRPENNPRP
shrunken log2 fold change: -0.0683

RRIRRRPPRLPRPRPRPYECPRP
shrunken log2 fold change: -0.0148

RRIRSRPPRLPRPRPRPCKWPRP
shrunken log2 fold change: -0.053

RRIRQRPPRLPRPRPRPRWYPRP
shrunken log2 fold change: -0.172

RRIRSRPPRLPRPRPRPEKVPRP
shrunken log2 fold change: -0.1

RRIRIRPPRLPRPRPRPLALPRP
shrunken log2 fold change: -0.138

RRIRKRPPRLPRPRPRPSQHPRP
shrunken log2 fold change: 0.109

RRIRCRPPRLPRPRPRPMSHPRP
shrunken log2 fold change: -0.207

RRIRERPPRLPRPRPRPRRAPRP
shrunken log2 fold change: 0.566

RRIRKRPPRLPRPRPRPWNMPRP
shrunken log2 fold change: -0.181

RRIRQRPPRLPRPRPRPFHIPRP
shrunken log2 fold change: -1.55

RRIRERPPRLPRPRPRPMPWPRP
shrunken log2 fold change: 0.0819

RRIRERPPRLPRPRPRPTMSPRP
shrunken log2 fold change: -0.217

RRIRARPPRLPRPRPRPVWSPRP
shrunken log2 fold change: 0.197

RRIRERPPRLPRPRPRPCEEPRP
shrunken log2 fold change: -0.125

RRIRGRPPRLPRPRPRPFNGPRP
shrunken log2 fold change: 0.0458

RRIRLRPPRLPRPRPRPNKVPRP
shrunken log2 fold change: -0.21

RRIRTRPPRLPRPRPRPQCSPRP
shrunken log2 fold change: 0.0299

RRIRDRPPRLPRPRPRPFQNPRP
shrunken log2 fold change: 0.0838

RRIRERPPRLPRPRPRPVYTPRP
shrunken log2 fold change: -0.146

RRIRARPPRLPRPRPRPWKGPRP
shrunken log2 fold change: 0.142

RRIRPRPPRLPRPRPRPFKHPRP
shrunken log2 fold change: 0.0339

RRIRFRPPRLPRPRPRPLTYPRP
shrunken log2 fold change: -0.573

RRIRPRPPRLPRPRPRPWGHPRP
shrunken log2 fold change: -0.0804

RRIRCRPPRLPRPRPRPHLHPRP
shrunken log2 fold change: -0.626

RRIRQRPPRLPRPRPRPANEPRP
shrunken log2 fold change: -0.104

RRIRMRPPRLPRPRPRPSWWPRP
shrunken log2 fold change: 0.169

RRIRQRPPRLPRPRPRPQVFPRP
shrunken log2 fold change: 0.131

RRIRQRPPRLPRPRPRPVNPPRP
shrunken log2 fold change: -0.085

RRIRNRPPRLPRPRPRPFATPRP
shrunken log2 fold change: -0.101

RRIRKRPPRLPRPRPRPDLIPRP
shrunken log2 fold change: -0.275

RRIRDRPPRLPRPRPRPAPRPRP
shrunken log2 fold change: 1.07

RRIRWRPPRLPRPRPRPYMKPRP
shrunken log2 fold change: -0.459

RRIRCRPPRLPRPRPRPARWPRP
shrunken log2 fold change: 0.56

RRIRKRPPRLPRPRPRPGMWPRP
shrunken log2 fold change: 0.438

RRIRFRPPRLPRPRPRPWIYPRP
shrunken log2 fold change: -0.662

RRIRTRPPRLPRPRPRPCWSPRP
shrunken log2 fold change: 0.499
